In paper PMC4365997 (Journal of cell science, 2008):

Biological target: T1, recombinant Rab11a (UniProt P62491 1-216)
T1 sequence (looked up): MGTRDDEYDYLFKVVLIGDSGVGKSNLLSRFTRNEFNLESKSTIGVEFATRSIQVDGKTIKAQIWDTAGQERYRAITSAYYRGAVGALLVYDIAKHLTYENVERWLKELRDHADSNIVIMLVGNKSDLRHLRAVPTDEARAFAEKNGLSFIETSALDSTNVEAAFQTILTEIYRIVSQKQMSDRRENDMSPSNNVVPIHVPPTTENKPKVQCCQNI
Assay: pull-down

binding result: binds
B1: Rip11/FIP5(490-652) (domain or fragment, UniProt Q9BXF6 490-652, looked up)
chain: ILGASPHHSSSGEEKAKSSWFGLREAKDPTQKPSPHPVKPLSAAPVEGSPDRKQSRSSLSIALSSGLEKLKTVTSGSIQPVTQAPQAGQMVDTKRLKDSAVLDQSAKYYHLTHDELISLLLQRERELSQRDEHVQELESYIDRLLVRIMETSPTLLQIPPGPP
